Laboratory results reported in patent US20240391961A1.

biological target: 14-3-3ζ nhpSer58 with a FLAG tag at its N-terminus (Homo sapiens (Human)) (UniProt P63104); assay: pulldown from HEK293 lysate, MS; nhpSer58 bait vs WT bait (reference)
Sequence (P63104 whole entry): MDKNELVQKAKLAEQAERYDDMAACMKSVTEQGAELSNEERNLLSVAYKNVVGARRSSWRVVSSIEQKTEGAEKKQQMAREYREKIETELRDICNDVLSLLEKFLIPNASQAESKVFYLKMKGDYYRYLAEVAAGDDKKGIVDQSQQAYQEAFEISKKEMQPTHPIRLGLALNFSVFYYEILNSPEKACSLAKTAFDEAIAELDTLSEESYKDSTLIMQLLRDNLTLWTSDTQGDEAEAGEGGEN

Row | Substance | FC [fold] | Log2(FC) [log2]
1 | 14-3-3 protein zeta/delta [OS = Homo sapiens] (from UniProt P63104 1-245) | 0.0821 | -3.61

biological target: 14-3-3ζ nhpSer58 with a FLAG tag at its N-terminus (Homo sapiens (Human)) (UniProt P63104); assay: not given

Row | Substance | FC [fold]
2 | A-kinase anchor protein 9 [OS = Homo sapiens], Q99996 1-3907 | 0.0561
3 | Annexin A2 [OS = Homo sapiens] (from UniProt P07355 2-339) | 24.6
4 | Arginase-1 [OS = Homo sapiens] (from UniProt P05089 1-322) | 6.22
5 | BRCA2-interacting transcriptional repressor EMSY [OS = Homo sapiens] (from UniProt Q7Z589 1-1322) | 9.69
6 | Centrosomal protein of 55 kDa [OS = Homo sapiens] (from UniProt Q53EZ4 1-464) | 4.5
7 | Cleavage stimulation factor subunit 3 [OS = Homo sapiens] (from UniProt Q12996 2-717) | 8.68
8 | Cytochrome c oxidase subunit 5A, mitochondrial [OS = Homo sapiens] (from UniProt P20674 42-150) | 0.223
9 | E3 ubiquitin-protein ligase MYCBP2 [OS = Homo sapiens] (from UniProt O75592 1-4678) | 0.234
10 | Exportin-1 [OS = Homo sapiens] (from UniProt O14980 1-1071) | 7.95
11 | F-box only protein 50 [OS = Homo sapiens] (from UniProt Q6ZVX7 1-275) | 4.55
12 | HAUS augmin-like complex subunit 5 [OS = Homo sapiens] (from UniProt O94927 1-633) | 7.34
13 | Intraflagellar transport protein 22 homolog [OS = Homo sapiens] (from UniProt Q9H7X7 1-185) | 16.3
14 | Intraflagellar transport protein 81 homolog [OS = Homo sapiens] (from UniProt Q8WYA0 2-676) | 21.9
15 | Junction plakoglobin [OS = Homo sapiens] (from UniProt P14923 1-745) | 4.8
16 | Keratin, type I cytoskeletal 13 [OS = Homo sapiens] (from UniProt P13646 1-458) | 8.89
17 | Platelet-activating factor acetylhydrolase IB subunit alpha [OS = Homo sapiens] (from UniProt P43034 1-410) | 7.47
18 | Pre-mRNA-splicing factor ATP-dependent RNA helicase DHX15 [OS = Homo sapiens] (from UniProt O43143 1-795) | 6.21
19 | Protein S100-A9 [OS = Homo sapiens] (from UniProt P06702 1-114) | 4.73
20 | Protein cereblon [OS = Homo sapiens] (from UniProt Q96SW2 1-442) | 8.91
21 | Protein disulfide-isomerase A6 [OS = Homo sapiens] (from UniProt Q15084 20-440) | 38.4
22 | exosome complex exonuclease RRP44 [OS = Homo sapiens] (from UniProt Q9Y2L1 1-958) | 5.09
23 | nuclear pore complex protein Nup98-Nup96 [OS = Homo sapiens] (from UniProt P52948 1-1817) | 5.93
24 | striatin [OS = Homo sapiens] (from UniProt O43815 1-780) | 4.33

Continued, values first:

Row | FC [fold] | Substance
25 | 4.04 | Acyl-CoA dehydrogenase family member 10 [OS = Homo sapiens] (from UniProt Q6JQN1 1-1059)
26 | 6.29 | Apoptosis-stimulating of p53 protein 2 [OS = Homo sapiens] (from UniProt Q13625 1-1128)
27 | 4.42 | Cyclin-dependent kinase 2-associated protein 1 [OS = Homo sapiens] (from UniProt O14519 1-115)
28 | 6.86 | DNA methyltransferase 1-associated protein 1 [OS = Homo sapiens] (from UniProt Q9NPF5 1-467)
29 | 7.08 | Desmoglein-1 [OS = Homo sapiens] (from UniProt Q02413 50-1049)
30 | 6.98 | Keratin, type II cytoskeletal 78 [OS = Homo sapiens] (from UniProt Q8N1N4 1-520)
31 | 9.56 | Ketosamine-3-kinase [OS = Homo sapiens] (from UniProt Q9HA64 1-309)
32 | 63.1 | Melanoma-associated antigen D2 [OS = Homo sapiens] (from UniProt Q9UNF1 2-606)
33 | 0.165 | Neurofibromin [OS = Homo sapiens] (from UniProt P21359 2-2839)
34 | 0.182 | Polyadenylate-binding protein 1 [OS = Homo sapiens] (from UniProt P11940 1-636)
35 | 64.8 | Protein S100-A7 [OS = Homo sapiens] (from UniProt P31151 2-101)
36 | 9.02 | SAGA-associated factor 29 [OS = Homo sapiens] (from UniProt Q96ES7 1-293)
37 | 36.3 | Serpin B4 [OS = Homo sapiens] (from UniProt P48594 1-390)
38 | 12.7 | Talin-1 [OS = Homo sapiens] (from UniProt Q9Y490 1-2541)
39 | 6.28 | Translin-associated protein X [OS = Homo sapiens] (from UniProt Q99598 1-290)
40 | 7.06 | opioid growth factor receptor [OS = Homo sapiens] (from UniProt Q9NZT2 1-677)
